Laboratory results published in the supplement of paper PMC10567573.

B1: INTS3 (parent)
chain: DLNSKGKKREFRFHPIKETVVEEP

Variants of: B1
Assay: protein stability index of a GFP-peptide fusion (GPS, HEK-293T) (PSI 1-6); higher = more stable
Details: c terminus: a fixed tail appended
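Note: lentivirally expressed fusions sorted by FACS into six bins by GFP to DsRed ratio, PSI derived from sequencing read proportions per bin multiplied by bin number.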

Q: Which protein stability index does the source give for DLNAKGKKREFRFHPIKETVVEEP here?
A: 2.42

Q: Which protein stability index does the source give for DLNRKGKKREFRFHPIKETVVEEP here?
A: 2.23

Q: Which protein stability index does the source give for DLNVKGKKREFRFHPIKETVVEEP here?
A: 2.71

Q: Which protein stability index does the source give for DLNYKGKKREFRFHPIKETVVEEP here?
A: 2.24

Q: For DLNHKGKKREFRFHPIKETVVEEP, which protein stability index is on record?
A: 2.24

Q: For DLNLKGKKREFRFHPIKETVVEEP, which protein stability index is on record?
A: 2

Q: For DLNKKGKKREFRFHPIKETVVEEP, which protein stability index is on record?
A: 2.08

Q: With DLNFKGKKREFRFHPIKETVVEEP as the variant, how does the protein stability index read?
A: 2.77

Q: For DLNPKGKKREFRFHPIKETVVEEP, which protein stability index is on record?
A: 2.41

Q: Which protein stability index does the source give for DLNCKGKKREFRFHPIKETVVEEP here?
A: 2.27

Q: Which protein stability index does the source give for ILNSKGKKREFRFHPIKETVVEEP here?
A: 1.28

Q: Which protein stability index does the source give for SLNSKGKKREFRFHPIKETVVEEP here?
A: 1.55

Q: For FLNSKGKKREFRFHPIKETVVEEP, which protein stability index is on record?
A: 2.24

Q: With LLNSKGKKREFRFHPIKETVVEEP as the variant, how does the protein stability index read?
A: 2.23

Q: Which protein stability index does the source give for VLNSKGKKREFRFHPIKETVVEEP here?
A: 2.47

Q: For RLNSKGKKREFRFHPIKETVVEEP, which protein stability index is on record?
A: 1.97

Q: Which protein stability index does the source give for TLNSKGKKREFRFHPIKETVVEEP here?
A: 1.52

Q: Which protein stability index does the source give for ELNSKGKKREFRFHPIKETVVEEP here?
A: 2.43

Q: For NLNSKGKKREFRFHPIKETVVEEP, which protein stability index is on record?
A: 1.56

Q: Which protein stability index does the source give for ALNSKGKKREFRFHPIKETVVEEP here?
A: 2.01

Q: With CLNSKGKKREFRFHPIKETVVEEP as the variant, how does the protein stability index read?
A: 2.26

Q: Which protein stability index does the source give for MLNSKGKKREFRFHPIKETVVEEP here?
A: 1.86

Q: Which protein stability index does the source give for PLNSKGKKREFRFHPIKETVVEEP here?
A: 1.48

Q: Which protein stability index does the source give for GLNSKGKKREFRFHPIKETVVEEP here?
A: 2.23

Q: For KLNSKGKKREFRFHPIKETVVEEP, which protein stability index is on record?
A: 2.23

Q: For YLNSKGKKREFRFHPIKETVVEEP, which protein stability index is on record?
A: 1.67

Q: Which protein stability index does the source give for QLNSKGKKREFRFHPIKETVVEEP here?
A: 2.02

Q: With HLNSKGKKREFRFHPIKETVVEEP as the variant, how does the protein stability index read?
A: 2.83

Q: With DLNSKCKKREFRFHPIKETVVEEP as the variant, how does the protein stability index read?
A: 2.23

Q: For DLNSKAKKREFRFHPIKETVVEEP, which protein stability index is on record?
A: 2.02

Q: With DLNSKLKKREFRFHPIKETVVEEP as the variant, how does the protein stability index read?
A: 1.52

Q: Which protein stability index does the source give for DLNSKEKKREFRFHPIKETVVEEP here?
A: 2.25

Q: Which protein stability index does the source give for DLNSKKKKREFRFHPIKETVVEEP here?
A: 1.74

Q: For DLNSKHKKREFRFHPIKETVVEEP, which protein stability index is on record?
A: 2.74

Q: For DLNSKIKKREFRFHPIKETVVEEP, which protein stability index is on record?
A: 1.59

Q: With DLNSKFKKREFRFHPIKETVVEEP as the variant, how does the protein stability index read?
A: 1.74

Q: With DLNSKDKKREFRFHPIKETVVEEP as the variant, how does the protein stability index read?
A: 2.29

Q: For DDNSKGKKREFRFHPIKETVVEEP, which protein stability index is on record?
A: 2.82

Q: Which protein stability index does the source give for DSNSKGKKREFRFHPIKETVVEEP here?
A: 2.89

Q: Which protein stability index does the source give for DVNSKGKKREFRFHPIKETVVEEP here?
A: 3.25

Q: Which protein stability index does the source give for DKNSKGKKREFRFHPIKETVVEEP here?
A: 2.09

Q: Which protein stability index does the source give for DENSKGKKREFRFHPIKETVVEEP here?
A: 2.26

Q: Which protein stability index does the source give for DQNSKGKKREFRFHPIKETVVEEP here?
A: 2.69

Q: For DCNSKGKKREFRFHPIKETVVEEP, which protein stability index is on record?
A: 2.22

Q: Which protein stability index does the source give for DINSKGKKREFRFHPIKETVVEEP here?
A: 2.36

Q: For DHNSKGKKREFRFHPIKETVVEEP, which protein stability index is on record?
A: 2

Q: For DANSKGKKREFRFHPIKETVVEEP, which protein stability index is on record?
A: 2.73

Q: With DNNSKGKKREFRFHPIKETVVEEP as the variant, how does the protein stability index read?
A: 2.96

Q: With DWNSKGKKREFRFHPIKETVVEEP as the variant, how does the protein stability index read?
A: 1.9

Q: With DGNSKGKKREFRFHPIKETVVEEP as the variant, how does the protein stability index read?
A: 2.8

Q: For DPNSKGKKREFRFHPIKETVVEEP, which protein stability index is on record?
A: 2.74

Q: With DMNSKGKKREFRFHPIKETVVEEP as the variant, how does the protein stability index read?
A: 1.81

Q: Which protein stability index does the source give for DRNSKGKKREFRFHPIKETVVEEP here?
A: 2.34

Q: With DTNSKGKKREFRFHPIKETVVEEP as the variant, how does the protein stability index read?
A: 2.28

Q: For DYNSKGKKREFRFHPIKETVVEEP, which protein stability index is on record?
A: 1.89

Q: With DFNSKGKKREFRFHPIKETVVEEP as the variant, how does the protein stability index read?
A: 2.2

Q: For DLRSKGKKREFRFHPIKETVVEEP, which protein stability index is on record?
A: 2.08

Q: Which protein stability index does the source give for DLASKGKKREFRFHPIKETVVEEP here?
A: 1.83

Q: With DLVSKGKKREFRFHPIKETVVEEP as the variant, how does the protein stability index read?
A: 1.53

Q: Which protein stability index does the source give for DLPSKGKKREFRFHPIKETVVEEP here?
A: 1.87

Q: Which protein stability index does the source give for DLYSKGKKREFRFHPIKETVVEEP here?
A: 2.54

Q: For DLKSKGKKREFRFHPIKETVVEEP, which protein stability index is on record?
A: 2.19

Q: For DLSSKGKKREFRFHPIKETVVEEP, which protein stability index is on record?
A: 1.76

Q: Which protein stability index does the source give for DLISKGKKREFRFHPIKETVVEEP here?
A: 1.88

Q: Which protein stability index does the source give for DLTSKGKKREFRFHPIKETVVEEP here?
A: 2.4

Q: For DLDSKGKKREFRFHPIKETVVEEP, which protein stability index is on record?
A: 2.79

Q: With DLQSKGKKREFRFHPIKETVVEEP as the variant, how does the protein stability index read?
A: 2.33

Q: Which protein stability index does the source give for DLLSKGKKREFRFHPIKETVVEEP here?
A: 2.16

Q: With DLGSKGKKREFRFHPIKETVVEEP as the variant, how does the protein stability index read?
A: 2.2

Q: For DLWSKGKKREFRFHPIKETVVEEP, which protein stability index is on record?
A: 1.8

Q: With DLCSKGKKREFRFHPIKETVVEEP as the variant, how does the protein stability index read?
A: 1.78

Q: For DLESKGKKREFRFHPIKETVVEEP, which protein stability index is on record?
A: 2.9

Q: Which protein stability index does the source give for DLHSKGKKREFRFHPIKETVVEEP here?
A: 1.88

Q: Which protein stability index does the source give for DLMSKGKKREFRFHPIKETVVEEP here?
A: 1.77

Q: With DLFSKGKKREFRFHPIKETVVEEP as the variant, how does the protein stability index read?
A: 1.51

Q: With DLNSQGKKREFRFHPIKETVVEEP as the variant, how does the protein stability index read?
A: 2.44

Q: For DLNSYGKKREFRFHPIKETVVEEP, which protein stability index is on record?
A: 2.26

Q: For DLNSTGKKREFRFHPIKETVVEEP, which protein stability index is on record?
A: 2.39

Q: With DLNSEGKKREFRFHPIKETVVEEP as the variant, how does the protein stability index read?
A: 2.88

Q: Which protein stability index does the source give for DLNSDGKKREFRFHPIKETVVEEP here?
A: 3.04

Q: With DLNSRGKKREFRFHPIKETVVEEP as the variant, how does the protein stability index read?
A: 2.25

Q: With DLNSLGKKREFRFHPIKETVVEEP as the variant, how does the protein stability index read?
A: 2.07

Q: For DLNSGGKKREFRFHPIKETVVEEP, which protein stability index is on record?
A: 2.54

Q: With DLNSHGKKREFRFHPIKETVVEEP as the variant, how does the protein stability index read?
A: 2.48

Q: With DLNSAGKKREFRFHPIKETVVEEP as the variant, how does the protein stability index read?
A: 2.43

Q: For DLNSFGKKREFRFHPIKETVVEEP, which protein stability index is on record?
A: 1.88

Q: For DLNSNGKKREFRFHPIKETVVEEP, which protein stability index is on record?
A: 2.56

Q: With DLNSPGKKREFRFHPIKETVVEEP as the variant, how does the protein stability index read?
A: 2.69

Q: Which protein stability index does the source give for DLNSCGKKREFRFHPIKETVVEEP here?
A: 2.05

Q: With DLNSWGKKREFRFHPIKETVVEEP as the variant, how does the protein stability index read?
A: 2.32

Q: With DLNSSGKKREFRFHPIKETVVEEP as the variant, how does the protein stability index read?
A: 2.35

Q: Which protein stability index does the source give for DLNSMGKKREFRFHPIKETVVEEP here?
A: 2.05

Q: With DLNSVGKKREFRFHPIKETVVEEP as the variant, how does the protein stability index read?
A: 2.76

Q: For DLNSIGKKREFRFHPIKETVVEEP, which protein stability index is on record?
A: 2.32
